Bridges are numbered along the chain shown (N, C = ends). Where no end group is shown, it is not given here. FAM = 5(6)-carboxyfluorescein; Ahx = NCCCCCC(=O)O

The values below come from US20180303898A1 (SANFORD BURNHAM PREBYS MEDICAL DISCOVERY INSTITUTE, published 2018).

Experiment [1] addresses T1, recombinant 6x-His-tagged p32 protein (p32/p33/gC1qR/HABP1) (UniProt Q07021 74-282).
T1 construct: not shown: 6x-His tag
T1 sequence (looked up): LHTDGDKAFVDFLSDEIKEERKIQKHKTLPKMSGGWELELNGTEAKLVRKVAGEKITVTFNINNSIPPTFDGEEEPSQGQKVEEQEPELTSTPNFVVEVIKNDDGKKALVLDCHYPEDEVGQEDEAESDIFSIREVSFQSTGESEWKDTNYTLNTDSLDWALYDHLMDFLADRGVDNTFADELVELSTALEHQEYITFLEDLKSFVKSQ
Put plainly: fluorescence polarization, FAM-labeled peptide constant, p32 titrated (FIG. 2A). Here is the method:
FIGS. 2A-2D are graphs showing FP- and phage binding-based validation of p32 binding peptides and hit compounds. […] Measurements were performed with PheraStar FS plate reader (BMG Labtech, Ortenberg, Germany) on 384-well plate. […] (C) Assessment of hit compound binding to a non-target secondary protein, NRP-1, to determine the specificity of the hit compounds in FP assay. A known NRP-1 binding peptide, RPARPAR (SEQ ID NO:18), was used as a control. (D) Effect of the hit compounds on the TT1 phage binding to p32 protein. TT1 phage binding to p32 in the presence of 100 μM hit compounds was determined in ELISA-type of binding assay. Each data point presents average±S.D., n=4.
The assay was initially set up in 20 μl well volume in 384 well plate (Corning Life Sciences), and measurements were carried out using PheraStar FS plate reader (BMG LABTECH, Ortenberg, Germany) in quadruplicate. […] Optimal concentration of fluorescein (FAM) labeled-peptides for the assay was determined by measuring the limit of detection (LOD), signal-to-background ratio (S/B), and stability of mP value over series of peptide concentrations. In the binding assay, the concentration of FAM-peptide was kept constant, and the FP was measured over the range of target protein concentrations. […]
A general note: In fluorescence polarisation assays a small probe gives low polarisation when free and higher when bound to something large.

Experiment [2] concerns the target T2, b1b2 domain of neuropilin-1 (NRP-1), recombinant (UniProt O14786 273-586, limits assumed).
T2 construct: domain: b1b2 domain; also called NRP-1 b1b2; b1b2 domain of NRP-1
T2 sequence (looked up): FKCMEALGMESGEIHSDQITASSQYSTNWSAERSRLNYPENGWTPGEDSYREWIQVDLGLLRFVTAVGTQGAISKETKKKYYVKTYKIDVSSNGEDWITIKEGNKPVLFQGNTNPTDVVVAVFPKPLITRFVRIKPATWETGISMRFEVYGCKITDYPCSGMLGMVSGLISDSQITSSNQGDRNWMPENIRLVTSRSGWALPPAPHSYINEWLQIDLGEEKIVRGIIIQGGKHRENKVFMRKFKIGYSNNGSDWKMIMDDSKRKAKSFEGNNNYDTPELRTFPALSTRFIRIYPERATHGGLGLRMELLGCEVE
Put plainly: fluorescence polarization, recombinant b1b2 domain of NRP-1. How it is done: FIG. 8 is a graph showing specificity of TT1 binding. Specificity of TT1 was further evaluated by measuring the binding of FAM-TT1 to recombinant non-target protein, b1b2 domain of neuropilin-1 (NRP-1). The binding was studied by fluorescence polarization. […] Each data point presents average±S.D., n=4-6.
(§1) The assay was initially set up in 20 μl well volume in 384 well plate (Corning Life Sciences), and measurements were carried out using PheraStar FS plate reader (BMG LABTECH, Ortenberg, Germany) in quadruplicate. Peptide and protein stock solutions were diluted to desired concentration with assay buffer (50 mM BIS-TRIS pH 7.4, 0.05% Tween20, 1 mM DTT). FAM-labeled peptides were protected from light during the experiment to avoid photobleaching. Optimal concentration of fluorescein (FAM) labeled-peptides for the assay was determined by measuring the limit of detection (LOD), signal-to-background ratio (S/B), and stability of mP value over series of peptide concentrations. In the binding assay, the concentration of FAM-peptide was kept constant, and the FP was measured over the range of target protein concentrations. The peptide dissociation constant (KD) was obtained by fitting the binding curve into Michaelis-Menten kinetics in GraphPad Prism-software (GraphPad Software, Inc., CA, USA). […]

For experiment [3], the target named is T1, recombinant 6x-His-tagged p32 protein …. Put plainly: fluorescence polarization, FAM-TT1 constant, p32 titrated, in BIS-TRIS buffer. How it is done: FIG. 6 is a graph showing the effect of buffer solution on interaction of TT1 and p32. The binding affinity of FAM-labeled TT1 to p32 was studied in different assay buffers: in PBS, HEPES, and BIS-TRIS, respectively. The binding was measured by fluorescence polarization (FP) and observed as increased FP value. Binding constants (KD) were calculated by fitting the binding curves into Michaelis-Menten kinetics. Each data point presents average±S.D., n=4-6.
as §1, with “concentrations.” for “concentrations. The peptide dissociation constant (KD) was obtained by fitting the binding curve into Michaelis-Menten kinetics in GraphPad Prism-software (GraphPad Software, Inc., CA, USA).”

As a reminder, the Kd is the concentration at which binding is half-saturated. With {FAM-Ahx}-CGNKRTRGC (disulfide 1-9 (inferred), also called FAM-LyP-1) [FAM-labeled LyP-1 peptide (CGNKRTRGC)], in experiment [1], the Kd was determined as 23 µM.

B1: FAM-labeled TT1 peptide (CKRGARSTC) (peptide)
peptide: {FAM-Ahx}-CKRGARSTC
modifications: disulfide (positions not given here); not fully specified (bridges); also: cyclic peptide, ring type not given here
notes: Synthetic fluorescent peptide used as the probe in the fluorescence polarization assays; also called FAM-TT1; FAM-TT-1
For the molecule B1, the binding result in experiment [2] is reported as “no binding”. Further, in experiment [3], the Kd came to 2.3 µM.
